Results as given in the nanobody polyreactivity screen of Harvey et al. (2022).

Assay: yeast display, Sf9 membrane polyspecificity reagent, FACS + sequencing; frameworks hold sequencing errors
Method in brief: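 Nanobodies came from a synthetic yeast display library in Saccharomyces cerevisiae BJ5465, induced with galactose for 36–48 hours and stained for 1 hour at 4 °C with 10% biotinylated, detergent-solubilized Sf9 membrane reagent. Cells were enriched on streptavidin microbeads and then FACS-sorted, with low and high (top ~1%) gates set on anti-HA fluorescence for expression and streptavidin fluorescence for reagent binding. Each polyreactivity label reflects the gate a clone came from. Genes were amplified by colony PCR, sequenced by MiSeq 2 × 250 and filtered by CDR length.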

## QVQLVESGGGLVQAGGSLRLSCAASGRIFHWYAMGWYRQAPGKERELVATANTSYADSVKGRFTISRDNAKNTVYLQMNSLKPEDTAVYYCATVGPRGRSLGDYWGQGTQVTVSS
  polyreactivity (PSR sort gate): low polyreactivity

## QVQLVESGGGLVQAGGSLRLSCAASGSTIFGNVMGWYRQAPGKERELVAVITNRGGSTYYADSVKGRFTISRDNAKNTVYLQMNSLKPEDTAVYYCATRSRPRSYYYWGQGTQVTVSS
  polyreactivity (PSR sort gate): high polyreactivity

## QVQLVESGGGLVQAGGSLRLSCAASGSTFQYKAMGWYRQAPGKERELVAAISRRGGSTYYADSVKRRFTISRDNAKNTVYFQMNSLKPADTAVYYCAKEKGYWSGYDYWGQGTQVTVSS
  polyreactivity (PSR sort gate): high polyreactivity

## QVQLVESGGGLVQAGGSLSLSCAASGSIFPRYTMGSYRQAPGKERELVAAISRSGGSTYYADSVKGRFTISRDNAKNTVYLQMNSLKPADTAVYYCDKSRPSKYDYWGQGTQVTVSS
  polyreactivity (PSR sort gate): high polyreactivity

## QVQLVESGGGLVQAGGSLRLSCAASGRIFVYNAMGWYRQAPGKERELVAAITRGGSTYYADSVKGRFTISRDNAKNTVYLQMNSLNPEDTAVYYCASDYQRNDFRWYDYWGQGTQVTVSS
  polyreactivity (PSR sort gate): low polyreactivity

## QVQLVESGGGLLQAGGSLRLSCAASGNIFYRYAMGWYRQAPGKERELVAAISGNSGNTYYADSVKGRFTISRDNAKNTVYLQIHSLNPEDTAVYYSAAERRAFGHYSGGQGTQVTVSS
  polyreactivity (PSR sort gate): high polyreactivity

## QVQLVESGGGLVQAGGSLRLSCAASGSIFDIYAMGGYRQAPGKERELVAGITRDDGSTYYADSVKGRFTISRDNAKNTVYLQMNSLNPEDTAVYYCNRPGDYPDYVPGYYYWGQGTQVTVSS
  polyreactivity (PSR sort gate): low polyreactivity

## QVQLVESGGGLVQAGGSLRLSCAASGFTFRYYAMGWYRQAPGKEREFVAAISWSGGSTYYADSVKGRFTISRDNAKNTVYLQMNSLKPEDTAVYYCNRVPRARKGDYWGQGTQVTVSS
  polyreactivity (PSR sort gate): high polyreactivity

## QVQLVESGGGLVQAGGSLRISCAASGFTLEPNTMGWYRQAPWKERELVAGISWSGGSTYYADSVKGRFTISRDNAKNTVYLQMNSLKPEDTAVYYCNAPPVRRSIVYDRRDYWGQGTQVTVSS
  polyreactivity (PSR sort gate): low polyreactivity

## QVQLVESGGGLVQAGGSLSLICAASGFTFGSNDMGWYRQAPGKERELVAAIDGSGDTYYADSVKGRFTISRDNAKNTVYLQMNSLKPEDTAVYYCARDDNPIYSGVTYDYWGQGTQVTVSS
  polyreactivity (PSR sort gate): low polyreactivity

## QEQLQESGGGLVQAGGSLRLSCAAIGSNIPTIYMGWYRHAPGKEREFVAAIGKGCSTYYADSVKGRFTISRDNALKTVYLQMNSLIPEDNAVYYCAFDPYASQDLAYWGQGTLVTVSS
  polyreactivity (PSR sort gate): low polyreactivity

## QVQLVESGGGLVQAGGSRRLSCAASGSIFIPYVMGWYRQAPGKERELVAVITSGGDTYYADSVKGRFTISRDNAKNTVYLQMNSLKPEDTAVYYCNATFWYPPWWYEYDYWGQGTQVTVSS
  polyreactivity (PSR sort gate): low polyreactivity

## QVQLVESGGGLVQAGGSLRLSCAASGFTFQRYTMGWYRQAPGKERELVAAISWSGGSTYYADSVKGRFTISRDNAKNSVYLQMNSLKPEDTAVYYCAAYRVIPYLSDYWGEGTQVTVSS
  polyreactivity (PSR sort gate): high polyreactivity

## QVQLVESGGGLVQAGGSLRLSCAASGSIFVHYAMGWYRQAPGKERELVARISWRGNTYYADSVKGRFTISRDNAKNTVYLQMNSLKPEDTAVYYCATGQSVIYRYEYWGQGTQVTVSS
  polyreactivity (PSR sort gate): low polyreactivity

## QVQLVESGGGVVQAGRSLRLSCAASGRLFVRNAMGWYRQAPGKDRELVAAITSVGDTYYADSVKGRFTISRDNAKNTVYLQMNSLKPVDTAVYYCAVYLWSGWGYPEYNYWGQGTQVTVSS
  polyreactivity (PSR sort gate): low polyreactivity

## QVQLVESGGGLVQAGGSLRLSCAASGSIFVLYAMGWYRQAPGKEREFVAAISRSGGSTYYADSVKGRFTISRDNAKNTVYLQMNSLKPEDTAVYYCAASSRLNRWNYYAFDYWGQGTQVTVSS
  polyreactivity (PSR sort gate): high polyreactivity

## QVQLVESGGGLVQAGGSLRLSCAASGRIFYGYAMGWYRQAPGKERELVAAISSGGITYYADSVKGRFTISRDNAKNTVYLQMNSLKPEDTAVYYCAATVLGDYEYWGQGTQVTVSS
  polyreactivity (PSR sort gate): low polyreactivity

## QVQLVESGGGLVQAGGSLRLSCAASGLNFSYYAMGWYRQAPGKERELVAAINSGGSTYYADSVKGRFTISRDNAKNTVYLQMNRLKQEDTAVYYCAAHLWYHGHLFDYWGQGTQVTVSS
  polyreactivity (PSR sort gate): high polyreactivity

## QVQLVESGGGLVQAGGSLRLSCAASGYTFSKNTMGWYRQAPGKEREFVAAINWSGGSTYYADSVKGRFTISRDNAKNTVYLQMNSLKPEDTAVYYCAARRGGRRGYDYWGQGTQVTVSS
  polyreactivity (PSR sort gate): high polyreactivity

## QVQLVESGGGLVQAGGSLRLSCAASGRTFPGNDMGWYRQAPGKERELVAAISSDDSTYYADSVKGRFTISRDNAKNTVYLQMNSLKPEDTAVYYCNAEYYEGYIGVPGSYWPYEYWGQGTQVTVSS
  polyreactivity (PSR sort gate): low polyreactivity

## QVQLVESGGGLVQAGGSLRLSCAASGFTFRHNVMGWYRQAPGKERELVATITWSGGRTSYADSVKGRFTISRDNAKNTVYLQMKSLKPEDTAVYYCAARFFSYSQYAYNYWGQGTQVTVSS
  polyreactivity (PSR sort gate): high polyreactivity

## QVQIVESRGGLVQAGVSLRLSCAASGRIFAKNVMGWYRQAPGKDRELVAAISRSGGSTYYADSVKGRFTISRDNAKNTVYLQMNSLKPEDTAVYYCAATPAYGRRWSRYGYWGQGTQVNVSS
  polyreactivity (PSR sort gate): high polyreactivity

## QVQLVESCGGLVQAGGSLRLSCAASGYTFSFNAMGWYRQAPGKESELVADINLSGGYTYYADSVKGRFTISRDNAKNTVYLQINSLKPEDTAVYYCAADLYDYWTEGYAFLFEYWGQGTQVTVSS
  polyreactivity (PSR sort gate): low polyreactivity

## QVQLVESGGGLVQAGGSLRLSCAASGSTFCDNAMGWYRQAPGNERELVAAISMSGGRTYYADSVKGRFTISRDNAKNTVYLQMNSLKPEDTAVYYCAAVGNRRYYFGYDYWGQGSQVTVSS
  polyreactivity (PSR sort gate): high polyreactivity

## QVKLVESGGGLVQAGGSLRLSCAASGTFYYNTMGWYIQAPGTERELVAAITSGGRTYADSVKGRFTISRDNAKNTVYLQMNSLKPEDTAVYYCAASWYFFSPGGTFGYWGQGTQVTVSS
  polyreactivity (PSR sort gate): low polyreactivity

## QVQLVESGGGLVQAGGSLRLSCAASGFIFSYYAMGWYRQAPGTERELVAVITFSVGSPYYADSVKGRFTISRDNAQNTVYLLMNSLKPEDTAVYYCAARSYACAKRAYYYWGQGTQVTVSS
  polyreactivity (PSR sort gate): high polyreactivity

## QVQLVESGGGLVQAGGSLRLSCAASGRTFYYNAMGWYRQAPGKERELVARITSSGGSTYYADSVKGRFTISRDNAKNTVYLQMNSLKPEDTAVYYCAAGRSRYLWFGRDFDYWGQGTQVTVSS
  polyreactivity (PSR sort gate): low polyreactivity

## QVQLVESGGGLVQAGGSLRLSCAASGRIYVTNAMGWYRQAPGKERELVASISSGGRTHYADSVKGRFTISRDNAKNTVYLQMNSLKPEDTAVYYCAKPPLYYYPDLRGEEFYYWGQGTQVTVSS
  polyreactivity (PSR sort gate): low polyreactivity

## QVQLVESGGGLVQAGGSLRLSCAASGRTSWRYAMGWYRQAPGKERELVAANNRGGSTYYADSVKGRFTISRDNAKNTVYLQMNSLKPEDTAVYYCAVDTPLEYYHQQAYVAGEYWGQGTQVTVSS
  polyreactivity (PSR sort gate): low polyreactivity

## QVQLVESGGGLVQAGGSLRLSCAASGRTFSYYAMGWYRQAPGKEREFVAAISSTGTSTYYADSVKGRFTISRDNAKNTVYLQMNSLKPEDTAVYYCNARVATYRLHSKFYYWGQGTQVTVSS
  polyreactivity (PSR sort gate): high polyreactivity

## QVQLVESGGGLVKAGGSLRLSCAASGSTFERYAMGWYRQAPGKERELVAAINWSGGGTYYADSVKGRFTISRDNAKNTVYFQMNSLKPEDTAVYYCAADSGTVVFSLWWYEYYYWGQGTQVTVSS
  polyreactivity (PSR sort gate): low polyreactivity

## QVQLEESGGGLVQAGGSLRLSCAASGSTCPTNAIGWYRQAPRKERELVADITIRRGGTSYADSVKGRFTMSRDNAKNTVYLQMNSLKPEDTAVYYCARSKSTELKRLLYDSWGQGTQVTVSS
  polyreactivity (PSR sort gate): low polyreactivity

## QVQLVESVGGLVQAGGSLRLSCAAYGRIFAWYAMGWYIQAPGKERELVAVITSSDGSTHYADSVKGRFTISRDNAKNTVYLQMNSLKPEDTAVYYCNADSQRPRRSSTYWGQGTQVTVSS
  polyreactivity (PSR sort gate): low polyreactivity

## QVQLEESGGGLVQAGGSLRLSCAASGRTFQYYTMGWYRQAPGKEREFVAAIRDSGGSTYYADSVKGRFTISRDNAKNTVYLQMNSLKPEDTAVYYCNKVPNGPSNYDYWGQGTQVTVSS
  polyreactivity (PSR sort gate): high polyreactivity

## QEQLEESGGGLVQAGGRLRLSCAASGSIFTTYTMGWYRQAPGKERELVAAIDYSGDSTYYADSGKGRFTISRDTAKNTVYLQMNSLKPEDTAVYYCNAVSFSAYVPYGYWGQGTQVTVSS
  polyreactivity (PSR sort gate): low polyreactivity

## QVQLVDSGGGLVQAGGSLRLSCAASGSIYNIYAMGWYRQAPGKERELVATITGIADSTYYADSVKGRFTISRDNAKNTVYLQMNSLKPEDTAVYYCAADKYVAEYDYWGQGTQVTVSS
  polyreactivity (PSR sort gate): low polyreactivity

## QVQLVESGGGLVQAGGSLRLSCAASGSIFRVYAMGWYRQAPGKERELVASISRRGGSTYYADSVKGRFTISRDYAKNTVYLQMNSLKPEDTAVYYCAAEFVIGGHGYDYWGQGTQVSVSS
  polyreactivity (PSR sort gate): high polyreactivity

## QVQLVESGGGLVQAGGSILLSCAASGFIFLYYAMGWYRQAPGKERELVADISRGADTKYADTVKGRFTISRDNAKNTVYLQMNSLKPEDTAVYYCATVITTFWFPYPGVELGYWGQGTQVNVSS
  polyreactivity (PSR sort gate): low polyreactivity

## QVQLVESGGGLVQAGGSLRLSCAASGRTFNWYAMGWYRQAPGKESELVAAISSRGGSTYADSVKGRFTISRDNAKNTVYLQMNSLTPEDTAVYYCNADLLPADAPLWVTGGDYWGQGTQVTVSW
  polyreactivity (PSR sort gate): low polyreactivity

## QVQLVESGVGLVQAGGSLRLSSAASGSIFAHNAMGWYRQEPGKEREFVATITYSGGTTYYADSVKGRFTISRDNAKNTVYLQMNILKPEDTAVYYCAKLRYPYLFWDDSEYWGQGTQVTVSS
  polyreactivity (PSR sort gate): low polyreactivity

## QVQLVESGGGLVQAGGSLRLSCAASGSTFRRYAMGWYRQAPGKERELVAAISSNGGSTYYADSVKGRFTISRDNAKNTVYLQMNSLKPEDTAVYYCAAYRSLDFDYWGQGTQVTVSS
  polyreactivity (PSR sort gate): high polyreactivity

## QVQLVESGGGLVQAGGSLRLSCAASGLTFRYYTMGWYRQAPGNERELVASSTSGGITYYADSVKGRFTISRDNAKNTVYLQMNSLKPEDPAVYYCAKGSYRTTYGALGVKYGYWGQGTQVTVSS
  polyreactivity (PSR sort gate): high polyreactivity

## QVQLVESGGGLVQAGGSLRLSCAASGSTLKYNAMGWYRQAPGKEREFVASITLSAGRTYYADSVKGRFTISRDNAKNTVYLQMNSLKPEDTAVYYCAARRYFSYRYDYWGQGTQVTVSS
  polyreactivity (PSR sort gate): high polyreactivity
